Values quoted from earlier work, collected in PMC3720604.

Target: CK2β (Homo sapiens) (UniProt P67870)
UniProt P67870, sequence (P67870 2-215): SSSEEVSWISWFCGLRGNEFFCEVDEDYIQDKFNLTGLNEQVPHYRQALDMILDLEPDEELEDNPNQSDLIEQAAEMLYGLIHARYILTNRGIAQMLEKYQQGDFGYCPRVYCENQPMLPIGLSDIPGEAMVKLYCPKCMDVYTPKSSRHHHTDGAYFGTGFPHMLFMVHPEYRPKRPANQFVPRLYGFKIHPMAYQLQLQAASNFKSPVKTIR

- Kd: 0.0455 µM
Substance: CK2α′ (from UniProt P19784)
